Measured values: PMC13284460, “HPV16 E2 protein possesses intrinsic helicase activity and sterically hinders E1 function through direct interaction”

Key:
[1] = molecular target: T1, HPV16 E1 (Human papillomavirus type 16, UniProt P03114 1-649); test: fluorescence polarization; 5 mM Mg2+; FP: 20 mM Tris-HCl pH 7.0, 10 mM NaCl, 0.1 mg/ml BSA, 5 mM MgCl2, 1 mM DTT, room temperature, 60 min; 50 nM probe, 0-200 nM protein; conditions: protein: recombinant; tags: His (pET28a, Ni-NTA); Myc (co-IP); chain copies: 6; label: 5' Cy3; single strand
T1 sequence: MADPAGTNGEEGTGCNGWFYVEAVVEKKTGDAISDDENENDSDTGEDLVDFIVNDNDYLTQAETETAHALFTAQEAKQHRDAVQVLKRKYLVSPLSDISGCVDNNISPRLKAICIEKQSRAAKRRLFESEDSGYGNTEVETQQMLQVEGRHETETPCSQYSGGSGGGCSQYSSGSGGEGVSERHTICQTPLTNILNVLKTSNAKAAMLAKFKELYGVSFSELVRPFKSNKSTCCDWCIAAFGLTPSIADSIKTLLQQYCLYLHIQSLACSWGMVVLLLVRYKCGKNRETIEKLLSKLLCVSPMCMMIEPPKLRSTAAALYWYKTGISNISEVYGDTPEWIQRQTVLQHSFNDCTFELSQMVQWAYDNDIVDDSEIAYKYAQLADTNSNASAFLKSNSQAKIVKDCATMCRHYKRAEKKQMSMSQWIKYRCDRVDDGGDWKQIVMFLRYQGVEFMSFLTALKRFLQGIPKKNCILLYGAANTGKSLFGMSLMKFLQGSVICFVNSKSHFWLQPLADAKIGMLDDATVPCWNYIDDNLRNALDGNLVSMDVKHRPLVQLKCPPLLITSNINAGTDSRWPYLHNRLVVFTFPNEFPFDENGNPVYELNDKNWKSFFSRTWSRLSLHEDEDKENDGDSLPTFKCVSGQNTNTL

[2] = molecular target: T2, HPV16 E2 (Human papillomavirus type 16, UniProt P03120 1-365); test: as above; conditions: protein: recombinant; tags: His (pET28a, Ni-NTA); HA (blots); chain copies: 2; label: 5' Cy3; single strand
[3] = molecular target: T2, HPV16 E2; test: fluorescence polarization; 5 mM Mg2+; separate experiment alongside E1; FP: 20 mM Tris-HCl pH 7.0, 10 mM NaCl, 0.1 mg/ml BSA, 5 mM MgCl2, 1 mM DTT, room temperature, 60 min; 50 nM probe, 0-200 nM protein; conditions: protein: recombinant; tags: His (pET28a, Ni-NTA); HA (blots); chain copies: 2; label: 5' Cy3; single strand

T2 sequence (P03120 whole entry): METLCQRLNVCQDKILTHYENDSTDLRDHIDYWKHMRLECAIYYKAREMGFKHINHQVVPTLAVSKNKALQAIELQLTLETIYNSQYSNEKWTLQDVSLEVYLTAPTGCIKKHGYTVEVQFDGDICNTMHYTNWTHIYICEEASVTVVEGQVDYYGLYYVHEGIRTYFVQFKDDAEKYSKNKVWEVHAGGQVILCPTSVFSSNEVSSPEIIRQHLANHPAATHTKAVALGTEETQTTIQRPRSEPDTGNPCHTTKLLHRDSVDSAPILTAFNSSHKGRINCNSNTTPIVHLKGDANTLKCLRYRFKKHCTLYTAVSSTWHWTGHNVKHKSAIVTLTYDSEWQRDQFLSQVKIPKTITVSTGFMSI

Binder: GCGTCTTTACGGGTGCTTAAAAACAAAAACAAAAACAAAA (ssDNA) [Cy3-labeled 40-nt ssDNA (FP probe)]
- Kd [1]: 0.172 ± 0.088 µM
- Kd [2]: 0.024 ± 0.008 µM
- Kd [3]: 0.028 ± 0.01 µM
